System: MS2 coat protein
Assay: apparent KD of MS2 coat protein; designed switch direction (-1 OFF switch, 1 ON switch): -1; higher = weaker reporter binding
Procedure, shortened: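 On Illumina chips, designed RNA switches with common flanks were made by stalled E. coli RNA polymerase. Titrations with SNAP-549-labelled MS2 coat protein, doubling from 0.7 or 1.5 nM to 3 µM, were done with no input, with 200 uM small-molecule ligand, or with an oligonucleotide input. Apparent KD is the median per design over clusters, from curve fits of normalised cluster fluorescence.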

[1] = input ligand: microRNA oligo, concentration not stated
[2] = Eterna round: R95, input ligand: FMN 200 uM
[3] = Eterna round: R95, input ligand: microRNA oligo, concentration not stated
[4] = Eterna round: R95, input ligand: none

Sequence | apparent KD of MS2 coat protein (input ligand: FMN 200 uM) | apparent KD of MS2 coat protein (input ligand: none) | apparent KD of MS2 coat protein [1] | apparent KD of MS2 coat protein [2] | apparent KD of MS2 coat protein [3] | apparent KD of MS2 coat protein [4]
UGCAGACGAGGAUAUAGAUUUAAGUACAUGAGGAUCACCCAUGUACACAUGUAUUUAGAUUUAGAAGGCGUCUGCU [E5/17-A4] (Eterna round: R97, puzzle: Exclusion 5) | 987 nM | 1210 nM | – | – | – | –
UUAAAUCAUGUAGGAUAUGCGUGGCGAAGCUAUGCAGAAGGACAUGAGGAUCACCCAUGUGCUAGCGUCUGCGUACAGAUGCAA [JL ENG1 1.11] (Eterna round: R96, puzzle: Exclusion NG 1) | 189 nM | 76.7 nM | 65.2 nM | – | – | –
AUCCGUAGGCGCACCUCACACAUGAGGAUCACCCAUGUGCCCUACAAUCGCAAGCUGUGCUCGUUGCUGGUCCCUAC [Eternabot (L1) Solution 16] (Eterna round: R97, puzzle: Sensor, turn-off variant 1) | 45.3 nM | 48.5 nM | – | – | – | –
GUCGGACAUGAGGAUCACCCAUGUGAGGAUAUCCUUUAGAGCUAUUAGUAGAUGCUUAGGAGAAGGCACUAGGG [Eternabot (L2) Solution 17] (Eterna round: R97, puzzle: Exclusion 1) | 93.9 nM | 314 nM | – | – | – | –
AAGAAACAUGAGGAUCACCCAUGUGAGGAUAUGGAAAAGAAAAGAAAAGAAAGAAGAAUCAGAAGGCACAAAGG [salish99-ex1_r3_020] (puzzle: Exclusion 1) | – | – | – | 40.8 nM | 33.7 nM | 37.6 nM
CUAAUAGCAGCAGGAUAUCUCACAUGAGGAUCACCCAUGUGGGACCGCCACCUCGUGUGUAAAGAAGAGAAGGGCUCGCACUCC [Eternabot solution 6] (Eterna round: R96, puzzle: Exclusion NG 2) | 37.6 nM | 26.1 nM | 12.8 nM | – | – | –
UCAAUUUUGCGAGGAUAUCGACCAUUCCUCUUUACAUGAGGAUCACCCAUGUUCUUUUUCUACAACGAGAAGGCGCUCAUAGUU [JR_ExcNG2_Sub063] (Eterna round: R96, puzzle: Exclusion NG 2) | – | – | 56.2 nM | – | – | –
UUUUAACAUGAGGAUCACCCAUGUGAGGAUAUCGUUAUUUUUAUUAAUAUUAAUAAAACGAGAAGGCACAUUUU [JMF 14] (puzzle: Exclusion 1) | – | – | – | – | 98.3 nM | –
GUAGAGUCAGGAUAUACAAAACCAUCGAAAGAUGGAUCCAUACAUGAGGAUCACCCAUGUAGAAGGGACUCUAC [Eli x2 4.17] (Eterna round: R97, puzzle: Exclusion 2) | 21 nM | 17.1 nM | – | – | – | –
AGACGGAGAAAAGGAUAUGAGACACUAGACGUCUCAGAAGGUUUAGCCAGUAGCUCCAACAUGAGGAUCACCCAUGUGGUCGUA [Eternabot solution 41] (Eterna round: R96, puzzle: Exclusion NG 1) | 50 nM | 184 nM | 108 nM | – | – | –
AGCAAGCAAUAGGAUAUGCCUGCAAGCUUGCAUGCAGAAGGAUUGACUUGAGGAUCACCCAAGUGGGCUCCUAA [Erbexe] (Eterna round: R97, puzzle: Exclusion 6) | 319 nM | 49.5 nM | – | – | – | –
UUAUUAUAUGUAGGAUAUGCAUAUUGUUGUUAUGCAGAAGGACAUGAGGAUCACCCAUGUAUAUUAUUGUUAUGUAUUAUAUAU [Title] (Eterna round: R96, puzzle: Exclusion NG 1) | 64.7 nM | 37.1 nM | 23.3 nM | – | – | –
CUCCUGCGAGGAUAUACAUAGUGACGUCUGUUUAAUCUUAAACAUGAGGAUCACCCAUGUAGAAGGUGCGUCAC [EX2 #82] (Eterna round: R97, puzzle: Exclusion 2) | 13.1 nM | 13.2 nM | – | – | – | –
CAGUACUGAGGAUAUACAUGAGGAUCACCCAUGUGUUCCAGGUAGGAAACUAGCAAAAGUAGAAGGCAGUACUG [salish99_ex3_r3_078] (Eterna round: R96, puzzle: Exclusion 3) | – | – | 17.5 nM | – | – | –
CAGGUGUGAGGAUAUGUGAUUAUGAUAGACCGAGUCUACCCACAGAAGGCACAUGAGGAUCACCCAUGUGAGUA [Eternabot (L1) Solution 75] (Eterna round: R97, puzzle: Exclusion 4) | 122 nM | 46.6 nM | – | – | – | –
GUCCUACAUGAGGAUCACCCAUGUAAGGAUAUGCUAGCGGUCGGAAGACUGACUGCUAGCAGAAGGUACAUGAU [Mat - Mod of JL D79] (puzzle: Exclusion 1) | – | – | – | – | 13.9 nM | –
UUUUAACAUGAGGAUCACCCAUGUGAGGAUAUCGAAAUUUAUAUUAAUAUUAUUAAAACGAGAAGGCACAUUUU [JMF 35] (puzzle: Exclusion 1) | – | – | – | – | 62.9 nM | –
CUCGGACAUGAGGAUCACCCAUGUGAGGAUAUGAUGCGAUCGUCGAAAGACGAUAGCAUCAGAAGGUACAAAUG [Fiskers Ex 1 - 22] (Eterna round: R96, puzzle: Exclusion 1) | 60.2 nM | 50.3 nM | 36.2 nM | – | – | –

Sequence | apparent KD of MS2 coat protein (input ligand: FMN 200 uM) | apparent KD of MS2 coat protein (input ligand: none) | apparent KD of MS2 coat protein [1] | apparent KD of MS2 coat protein [2] | apparent KD of MS2 coat protein [3] | apparent KD of MS2 coat protein [4]
AGAUCACAUGAGGAUCACCCAUGUCAGGAUAUGAUACUAUGUACUUCGGUACAUAGUAUCAGAAGGGAUAUAAA [Ex1-3: 68] (puzzle: Exclusion 1) | – | – | – | – | 75.1 nM | –
ACUGGUCGAGGAUAUACAUGAGGAUCACCCAUGUAGAUCAACCAGCGAUAGCUGGAAUGUAGAAGGCGACCAGU [E3/5-A2] (Eterna round: R97, puzzle: Exclusion 3) | 191 nM | 24.6 nM | – | – | – | –
GAUCCGUUAGGAUAUCGUGAGGACAGCUAGUCUUAUUAACACGAGAAGGAACAUGAGGAUCACCCAUGUGGUAA [Eternabot (L1) Solution 14] (Eterna round: R97, puzzle: Exclusion 4) | 279 nM | 62.3 nM | – | – | – | –
GUGAAGUAAGGAUAUACAUGAGGAUCACCCAUGUGGAGGAAGGUGAUGGGAGUAGGUAGUAGAAGGUACGAGGA [JR_Exclu3_Sub064] (Eterna round: R96, puzzle: Exclusion 3) | 304 nM | 207 nM | 134 nM | – | – | –
UAUCGGCGGACCGAGGCUUUUUGCUCGUCUUAUGCUAUGACAUGAGGAUCACCCAUGUGGUGGUGGUCCGUUGUAGU [JL ViennaUCT Bitein mod 10] (puzzle: Sensor v3, turn-off variant 2) | – | – | – | 64.5 nM | 12.6 nM | 48.1 nM
AUUUAGUGAGGAUAUGUGGCUUCGAUCGUGAGAUCGAGGCUACAGAAGGCACAUGAGGAUCACCCAUGUUCCUG [salish99_ex4_r4_113] (Eterna round: R97, puzzle: Exclusion 4) | 75.7 nM | 17.5 nM | – | – | – | –
GUGUACAGAGGAUAUAUAUGGGCAUGGAAACAUGCAACUUCACAUGAGGAUCACCCAUGUAGAAGGCUGUACAC [Ex2: 712] (Eterna round: R96, puzzle: Exclusion 2) | 332 nM | 28.9 nM | 23 nM | – | – | –
UGGUCCCUGAAACAUGAGGAUCACCCAUGUAUAAUGAGGACAAAGGAUAUAUCCCACCAGGUAGGGUAGAAGGUUGAACUCUAC [Eternabot solution 42] (Eterna round: R96, puzzle: Exclusion NG 3) | 13.1 nM | 16.2 nM | 10.6 nM | – | – | –
GUUUAGUGAGGAUAUGUGGCUUCGAUCGUGAGAUCGAGGCUACAGAAGGCACAUGAGGAUCACCCAUGUUCCUA [salish99_ex4_r4_107] (Eterna round: R97, puzzle: Exclusion 4) | 87.7 nM | 16.5 nM | – | – | – | –
UUUAAUUUAAUUAAGAUCACAUGAGGAUCACCCAUGUAUAUAUAGGAUAUCAGCUCGUGUAGAGCUGAGAAGGAUAUAUACAUA [ExNG3/4-A3] (Eterna round: R96, puzzle: Exclusion NG 3) | 46 nM | 101 nM | 35.9 nM | – | – | –
UAUGUGUGAGGAUAUGGUAAAGAUAAGAUGAUGAAAGAACUCCAGAAGGCACAUGAGGAUCACCCAUGUAGAUA [Mat - Exclusion 4 - Mod of JL - D23] (puzzle: Exclusion 4) | – | – | – | – | 20.4 nM | –
CAGUACUGAGGAUAUACAUGAGGAUCACCCAUGUGUUCCAGCGAGGAAACUAGCAAAAGUAGAAGGCAGUACUG [salish99_ex3_r3_077] (puzzle: Exclusion 3) | – | – | – | 199 nM | 18.4 nM | 17.5 nM
ACCAUUUACUAAUCCUCUAUACAUGAGGAUCACCCAUGUUCUGAGGAUAUCAUCGUUCGCCGCGUUGAGAAGGCAGAGCAUUCG [Ariestion] (Eterna round: R96, puzzle: Exclusion NG 3) | 157 nM | 24.8 nM | 22.4 nM | – | – | –
CAAGCUUUUCCAUUUCUAUACAUGAGGAUCACCCAUGUCCCGAGUUGGGUGAGCACUCUGGUCGUCGUUUCUACCAA [Envele] (Eterna round: R96, puzzle: Sensor v2, turn-off variant) | 432 nM | 278 nM | 181 nM | – | – | –
AGUACUAACACGUGAGUGUUAGUACAAUAAGCUUGUGAAACAUGAGGAUCACCCAUGUCCUCAUAAGCUCGUCUUAU [salish99_TOv2_r3_061] (Eterna round: R96, puzzle: Sensor v3, turn-off variant 2) | 16.5 nM | 18.5 nM | 496 nM | – | – | –
UUUUGCACGCUGCGGUCCUACAUGAGGAUCACCCAUGUGGUCUGGUGGCGUGGGUCGCCGGACUUGGCUCGUCUUGG [salish99_S_TOV1_R5_035] (Eterna round: R97, puzzle: Sensor, turn-off variant 1) | 15.5 nM | 14.9 nM | – | – | – | –
GAUUGACAUGAGGAUCACCCAUGUGAGGAUAUCGGCCGGACCUUGUUAGCUUCCACCGCGAGAAGGCACAUAGG [Exclusion 1 V31] (puzzle: Exclusion 1) | – | – | – | – | 25.3 nM | –

From the supplement of paper PMC9170038
